Measurements from patent publication US20190185537A1 (AstraZeneca / MedImmune, published 2019).
“And” between values parts separate entries of the source, which are not always exact repeats. Equal values may be shown once. Numbered stars: 1 amine (or outer) side, 2 acyl side, 3 side chain; on linkers, the order of the positions; unused ones are H or OH. Side chains are listed from the residue outwards. Ends that are not written are not given here. * marks the point of attachment. γGlu = O=C(O)[C@H](CCC(=O)[*:2])N[*:1]; Palmitoyl = CCCCCCCCCCCCCCCC(=O)*; Ahx = NCCCCCC(=O)O

Experiments:
[1] = target: human GLP-1 receptor (human, UniProt P43220 24-463); assay: cell-based or functional assay
[2] = target: human glucagon receptor (human, UniProt P47871 26-477); assay: cell-based or functional assay
human glucagon receptor, sequence (P47871 26-477): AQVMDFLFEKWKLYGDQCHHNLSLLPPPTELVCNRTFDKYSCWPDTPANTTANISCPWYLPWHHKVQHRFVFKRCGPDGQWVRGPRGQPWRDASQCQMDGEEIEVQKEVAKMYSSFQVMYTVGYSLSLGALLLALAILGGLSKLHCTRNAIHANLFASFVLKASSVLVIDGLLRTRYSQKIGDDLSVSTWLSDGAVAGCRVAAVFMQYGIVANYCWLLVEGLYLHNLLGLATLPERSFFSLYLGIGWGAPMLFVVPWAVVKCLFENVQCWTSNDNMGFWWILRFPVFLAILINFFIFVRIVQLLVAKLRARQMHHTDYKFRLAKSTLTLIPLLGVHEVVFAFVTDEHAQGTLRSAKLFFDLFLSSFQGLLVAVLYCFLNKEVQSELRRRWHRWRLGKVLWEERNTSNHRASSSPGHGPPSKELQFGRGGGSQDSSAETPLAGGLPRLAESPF

human GLP-1 receptor, sequence (P43220 24-463): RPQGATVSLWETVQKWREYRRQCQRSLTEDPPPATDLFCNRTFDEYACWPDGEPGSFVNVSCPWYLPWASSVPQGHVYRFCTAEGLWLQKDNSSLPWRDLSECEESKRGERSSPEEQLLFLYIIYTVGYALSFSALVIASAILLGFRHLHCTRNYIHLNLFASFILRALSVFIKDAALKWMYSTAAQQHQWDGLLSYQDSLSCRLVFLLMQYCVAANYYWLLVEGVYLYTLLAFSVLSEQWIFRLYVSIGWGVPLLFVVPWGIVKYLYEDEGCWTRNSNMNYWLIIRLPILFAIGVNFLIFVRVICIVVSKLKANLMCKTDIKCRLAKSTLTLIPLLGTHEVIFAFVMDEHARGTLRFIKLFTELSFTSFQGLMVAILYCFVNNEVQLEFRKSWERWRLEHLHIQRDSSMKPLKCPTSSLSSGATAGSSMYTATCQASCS

B1: g736 (peptide)
peptide: HGQGTFTSDYSKYLDSK([γGlu-Palmitoyl])RAADFVAWLVAGG-NH2
modifications: N-terminus assumed
SMILES: CCCCCCCCCCCCCCCC(=O)N[C@@H](CCC(=O)NCCCC[C@H](NC(=O)[C@H](CO)NC(=O)[C@H](CC(=O)O)NC(=O)[C@H](CC(C)C)NC(=O)[C@H](Cc1ccc(O)cc1)NC(=O)[C@H](CCCCN)NC(=O)[C@H](CO)NC(=O)[C@H](Cc1ccc(O)cc1)NC(=O)[C@H](CC(=O)O)NC(=O)[C@H](CO)NC(=O)[C@@H](NC(=O)[C@H](Cc1ccccc1)NC(=O)[C@@H](NC(=O)CNC(=O)[C@H](CCC(N)=O)NC(=O)CNC(=O)[C@@H](N)Cc1c[nH]cn1)[C@@H](C)O)[C@@H](C)O)C(=O)N[C@@H](CCCNC(=N)N)C(=O)N[C@@H](C)C(=O)N[C@@H](C)C(=O)N[C@@H](CC(=O)O)C(=O)N[C@@H](Cc1ccccc1)C(=O)N[C@H](C(=O)N[C@@H](C)C(=O)N[C@@H](Cc1c[nH]c2ccccc12)C(=O)N[C@@H](CC(C)C)C(=O)N[C@H](C(=O)N[C@@H](C)C(=O)NCC(=O)NCC(N)=O)C(C)C)C(C)C)C(=O)O
- cAMP EC50 (assay 1) [1]: 0.0854 nM
- cAMP EC50 (assay 1) [2]: 0.919 nM and 0.92 nM

B2: g720 (peptide)
peptide: HGQGTFTSDYSRYLDSK([γGlu-Palmitoyl])RARDFVEWLVAGG-NH2
modifications: N-terminus assumed
SMILES: CCCCCCCCCCCCCCCC(=O)N[C@@H](CCC(=O)NCCCC[C@H](NC(=O)[C@H](CO)NC(=O)[C@H](CC(=O)O)NC(=O)[C@H](CC(C)C)NC(=O)[C@H](Cc1ccc(O)cc1)NC(=O)[C@H](CCCNC(=N)N)NC(=O)[C@H](CO)NC(=O)[C@H](Cc1ccc(O)cc1)NC(=O)[C@H](CC(=O)O)NC(=O)[C@H](CO)NC(=O)[C@@H](NC(=O)[C@H](Cc1ccccc1)NC(=O)[C@@H](NC(=O)CNC(=O)[C@H](CCC(N)=O)NC(=O)CNC(=O)[C@@H](N)Cc1c[nH]cn1)[C@@H](C)O)[C@@H](C)O)C(=O)N[C@@H](CCCNC(=N)N)C(=O)N[C@@H](C)C(=O)N[C@@H](CCCNC(=N)N)C(=O)N[C@@H](CC(=O)O)C(=O)N[C@@H](Cc1ccccc1)C(=O)N[C@H](C(=O)N[C@@H](CCC(=O)O)C(=O)N[C@@H](Cc1c[nH]c2ccccc12)C(=O)N[C@@H](CC(C)C)C(=O)N[C@H](C(=O)N[C@@H](C)C(=O)NCC(=O)NCC(N)=O)C(C)C)C(C)C)C(=O)O
- cAMP EC50 (assay 1) [1]: 0.0534 nM
- cAMP EC50 (assay 1) [2]: 0.352 nM

B3: g737 (peptide)
peptide: HGEGTFTSDYSKYLDSK([γGlu-Palmitoyl])RAADFVAWLVAGG-NH2
modifications: N-terminus assumed
SMILES: CCCCCCCCCCCCCCCC(=O)N[C@@H](CCC(=O)NCCCC[C@H](NC(=O)[C@H](CO)NC(=O)[C@H](CC(=O)O)NC(=O)[C@H](CC(C)C)NC(=O)[C@H](Cc1ccc(O)cc1)NC(=O)[C@H](CCCCN)NC(=O)[C@H](CO)NC(=O)[C@H](Cc1ccc(O)cc1)NC(=O)[C@H](CC(=O)O)NC(=O)[C@H](CO)NC(=O)[C@@H](NC(=O)[C@H](Cc1ccccc1)NC(=O)[C@@H](NC(=O)CNC(=O)[C@H](CCC(=O)O)NC(=O)CNC(=O)[C@@H](N)Cc1c[nH]cn1)[C@@H](C)O)[C@@H](C)O)C(=O)N[C@@H](CCCNC(=N)N)C(=O)N[C@@H](C)C(=O)N[C@@H](C)C(=O)N[C@@H](CC(=O)O)C(=O)N[C@@H](Cc1ccccc1)C(=O)N[C@H](C(=O)N[C@@H](C)C(=O)N[C@@H](Cc1c[nH]c2ccccc12)C(=O)N[C@@H](CC(C)C)C(=O)N[C@H](C(=O)N[C@@H](C)C(=O)NCC(=O)NCC(N)=O)C(C)C)C(C)C)C(=O)O
- cAMP EC50 (assay 1) [1]: 0.0814 nM
- cAMP EC50 (assay 1) [2]: 734 nM

B4: g701 (peptide)
peptide: HGQGTFTSDYSK([γGlu-Palmitoyl])YLDSERAQDFVQWLERGG-NH2
modifications: N-terminus assumed
SMILES: CCCCCCCCCCCCCCCC(=O)N[C@@H](CCC(=O)NCCCC[C@H](NC(=O)[C@H](CO)NC(=O)[C@H](Cc1ccc(O)cc1)NC(=O)[C@H](CC(=O)O)NC(=O)[C@H](CO)NC(=O)[C@@H](NC(=O)[C@H](Cc1ccccc1)NC(=O)[C@@H](NC(=O)CNC(=O)[C@H](CCC(N)=O)NC(=O)CNC(=O)[C@@H](N)Cc1c[nH]cn1)[C@@H](C)O)[C@@H](C)O)C(=O)N[C@@H](Cc1ccc(O)cc1)C(=O)N[C@@H](CC(C)C)C(=O)N[C@@H](CC(=O)O)C(=O)N[C@@H](CO)C(=O)N[C@@H](CCC(=O)O)C(=O)N[C@@H](CCCNC(=N)N)C(=O)N[C@@H](C)C(=O)N[C@@H](CCC(N)=O)C(=O)N[C@@H](CC(=O)O)C(=O)N[C@@H](Cc1ccccc1)C(=O)N[C@H](C(=O)N[C@@H](CCC(N)=O)C(=O)N[C@@H](Cc1c[nH]c2ccccc12)C(=O)N[C@@H](CC(C)C)C(=O)N[C@@H](CCC(=O)O)C(=O)N[C@@H](CCCNC(=N)N)C(=O)NCC(=O)NCC(N)=O)C(C)C)C(=O)O
- cAMP EC50 (assay 1) [1]: 7.4 nM
- cAMP EC50 (assay 1) [2]: 3.83 nM

B5: g744 (peptide)
peptide: HSQGTFTSDYSKYLDSRRAK([γGlu-Palmitoyl])DFVQWLEAGG-NH2
modifications: N-terminus assumed
SMILES: CCCCCCCCCCCCCCCC(=O)N[C@@H](CCC(=O)NCCCC[C@H](NC(=O)[C@H](C)NC(=O)[C@H](CCCNC(=N)N)NC(=O)[C@H](CCCNC(=N)N)NC(=O)[C@H](CO)NC(=O)[C@H](CC(=O)O)NC(=O)[C@H](CC(C)C)NC(=O)[C@H](Cc1ccc(O)cc1)NC(=O)[C@H](CCCCN)NC(=O)[C@H](CO)NC(=O)[C@H](Cc1ccc(O)cc1)NC(=O)[C@H](CC(=O)O)NC(=O)[C@H](CO)NC(=O)[C@@H](NC(=O)[C@H](Cc1ccccc1)NC(=O)[C@@H](NC(=O)CNC(=O)[C@H](CCC(N)=O)NC(=O)[C@H](CO)NC(=O)[C@@H](N)Cc1c[nH]cn1)[C@@H](C)O)[C@@H](C)O)C(=O)N[C@@H](CC(=O)O)C(=O)N[C@@H](Cc1ccccc1)C(=O)N[C@H](C(=O)N[C@@H](CCC(N)=O)C(=O)N[C@@H](Cc1c[nH]c2ccccc12)C(=O)N[C@@H](CC(C)C)C(=O)N[C@@H](CCC(=O)O)C(=O)N[C@@H](C)C(=O)NCC(=O)NCC(N)=O)C(C)C)C(=O)O
- cAMP EC50 (assay 1) [1]: 2.45 nM
- cAMP EC50 (assay 1) [2]: 0.0392 nM

B6: g746 (peptide)
peptide: HSQGTFTSDYSKYLDSRRAQDFVK([γGlu-Palmitoyl])WLEAGG-NH2
modifications: N-terminus assumed
SMILES: CCCCCCCCCCCCCCCC(=O)N[C@@H](CCC(=O)NCCCC[C@H](NC(=O)[C@@H](NC(=O)[C@H](Cc1ccccc1)NC(=O)[C@H](CC(=O)O)NC(=O)[C@H](CCC(N)=O)NC(=O)[C@H](C)NC(=O)[C@H](CCCNC(=N)N)NC(=O)[C@H](CCCNC(=N)N)NC(=O)[C@H](CO)NC(=O)[C@H](CC(=O)O)NC(=O)[C@H](CC(C)C)NC(=O)[C@H](Cc1ccc(O)cc1)NC(=O)[C@H](CCCCN)NC(=O)[C@H](CO)NC(=O)[C@H](Cc1ccc(O)cc1)NC(=O)[C@H](CC(=O)O)NC(=O)[C@H](CO)NC(=O)[C@@H](NC(=O)[C@H](Cc1ccccc1)NC(=O)[C@@H](NC(=O)CNC(=O)[C@H](CCC(N)=O)NC(=O)[C@H](CO)NC(=O)[C@@H](N)Cc1c[nH]cn1)[C@@H](C)O)[C@@H](C)O)C(C)C)C(=O)N[C@@H](Cc1c[nH]c2ccccc12)C(=O)N[C@@H](CC(C)C)C(=O)N[C@@H](CCC(=O)O)C(=O)N[C@@H](C)C(=O)NCC(=O)NCC(N)=O)C(=O)O
- cAMP EC50 (assay 1) [1]: 11.5 nM
- cAMP EC50 (assay 1) [2]: 0.0354 nM

Binder: HSQGTFTSDYSKYLDSERAK([Ahx-Palmitoyl])DFVAWLERGG-NH2 (not fully specified) [g787]
- cAMP EC50 (assay 1) [1]: 6.65 nM
- cAMP EC50 (assay 1) [2]: 0.0436 nM

Binder: HSQGTFTSDYSKYLDSRRAQDFVQWLVAGGSSGGSSK-NH2 [g317]
- cAMP EC50 (assay 1) [1]: 2.63 nM

B7: g318 (peptide)
peptide: HSQGTFTSDYSKYLDSRRAQDFVQWLVAGGSSGGSSK(Palmitoyl)-NH2
modifications: N-terminus assumed
SMILES: CCCCCCCCCCCCCCCC(=O)NCCCC[C@H](NC(=O)[C@H](CO)NC(=O)[C@H](CO)NC(=O)CNC(=O)CNC(=O)[C@H](CO)NC(=O)[C@H](CO)NC(=O)CNC(=O)CNC(=O)[C@H](C)NC(=O)[C@@H](NC(=O)[C@H](CC(C)C)NC(=O)[C@H](Cc1c[nH]c2ccccc12)NC(=O)[C@H](CCC(N)=O)NC(=O)[C@@H](NC(=O)[C@H](Cc1ccccc1)NC(=O)[C@H](CC(=O)O)NC(=O)[C@H](CCC(N)=O)NC(=O)[C@H](C)NC(=O)[C@H](CCCNC(=N)N)NC(=O)[C@H](CCCNC(=N)N)NC(=O)[C@H](CO)NC(=O)[C@H](CC(=O)O)NC(=O)[C@H](CC(C)C)NC(=O)[C@H](Cc1ccc(O)cc1)NC(=O)[C@H](CCCCN)NC(=O)[C@H](CO)NC(=O)[C@H](Cc1ccc(O)cc1)NC(=O)[C@H](CC(=O)O)NC(=O)[C@H](CO)NC(=O)[C@@H](NC(=O)[C@H](Cc1ccccc1)NC(=O)[C@@H](NC(=O)CNC(=O)[C@H](CCC(N)=O)NC(=O)[C@H](CO)NC(=O)[C@@H](N)Cc1c[nH]cn1)[C@@H](C)O)[C@@H](C)O)C(C)C)C(C)C)C(N)=O
- cAMP EC50 (assay 1) [1]: 1.14 nM
- cAMP EC50 (assay 1) [2]: 9.04 nM

Binder: HSQGTFTSDYSKYLDSRRAQDFVQWLVAGGSGSGSG-NH2 [g402]
- cAMP EC50 (assay 1) [1]: 0.0857 nM
- cAMP EC50 (assay 1) [2]: 0.0596 nM

Binder: HSQGTFTSDYSKYLDSRRAQDFVQWLVAGGGGGGK-NH2 [g325]
- cAMP EC50 (assay 1) [1]: 0.0261 nM
- cAMP EC50 (assay 1) [2]: 0.0103 nM
